The source of these data is article PMC3928310, “Model of a DNA-Protein Complex of the Architectural Monomeric Protein MC1 from Euryarchaea”.

Common to all, as to test: EMSA; EMSA: 10 mM Tris-HCl pH 7.5, 150 mM NaCl, 1 mM EDTA, 15 ug/ml BSA, 8% glycerol, 15 min at 20 C, 0.1 nM DNA, TBE gel; NMR PRE: 10 mM phosphate pH 6, 100 mM NaCl, 10% D2O
What all share (conditions): protein: recombinant; label: 5'-32P on one strand; blunt

Data set [1] deals with T1, MC1 R25A (Methanosarcina thermophila CHTI55, UniProt P12770 1-93, R25A).
T1 sequence: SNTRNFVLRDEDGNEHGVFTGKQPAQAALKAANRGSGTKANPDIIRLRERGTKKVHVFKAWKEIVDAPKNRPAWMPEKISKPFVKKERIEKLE

The target in data set [2] is T2, MC1 W74F (Methanosarcina thermophila CHTI55, UniProt P12770 1-93, W74F).
T2 sequence: T1 sequence with A25R, W74F

Data set [3] has as its target T3, MC1 I89A (Methanosarcina thermophila CHTI55, UniProt P12770 1-93, I89A).
T3 sequence: T1 sequence with A25R, I89A

Data set [4] has as its target T4, MC1 R71A (Methanosarcina thermophila CHTI55, UniProt P12770 1-93, R71A).
T4 sequence: T1 sequence with A25R, R71A

Data set [5] concerns the target T5, MC1 P72A (Methanosarcina thermophila CHTI55, UniProt P12770 1-93, P72A).
T5 sequence: T1 sequence with A25R, P72A

In data set [6] the target is T6, MC1 R25Q (Methanosarcina thermophila CHTI55, UniProt P12770 1-93, R25Q).
T6 sequence: T1 sequence with A25Q

Data set [7] addresses T7, MC1 Q23E (Methanosarcina thermophila CHTI55, UniProt P12770 1-93, Q23E).
T7 sequence: T1 sequence with Q23E, A25R

Changes are numbered by the printed parent chain.

B1: 26 bp EMSA duplex (dsDNA)
DNA 1: GCCTCAAAAACACACACCCCCGACAG
DNA 2: CTGTCGGGGGTGTGTGTTTTTGAGGC
With B1, the Kd was 161 ± 14 nM in data set [1]; 8.4 ± 1 nM in data set [2]; 15.4 ± 2 nM in data set [3]; 3.6 ± 0.2 nM in data set [4]; 4.2 ± 0.5 nM in data set [5]; 552 ± 34 nM in data set [6]. The Kd in data set [7] was determined as 9.05 ± 2 nM.
